Changes are numbered by the printed parent chain. Numbers in names are those of the source.
How the values were obtained:
[1] = tested on: syngeneic CT26 colorectal tumors; experiment: CT26 tumors in BALB/c mice treated with C. novyi-NT spores and free or liposomal drugs; format: in vivo, mouse; conditions: 300 million spores i.v., drug 10 mg/kg single i.v. dose 16 h later
Method: Animal models. […] Tumor volume was calculated as length×width^2×0.5.

E. coli = experiment: Growth of E. coli expressing NT01CX2047 forms after IPTG induction; format: cell-based; conditions: after induction by IPTG
Method: Protein Expression. The expression vectors described above were transformed by heat shock into the Rosetta-gami(DE3)pLysS strain of E. coli (Novagen, Madison, Wis.). Three clones per expression construct were picked and each was cultured in 20 ml HyperBroth (AthenaES, Baltimore, Md.) under antibiotic selection (100 μg/ml ampicillin+34 μg/ml chloramphenicol) at room temperature. As a negative control, bacteria carrying the pLip plasmid were “cured” of their plasmid through growth in the absence of selective antibiotics. Loss of plasmid was verified by PCR. Expression was induced using IPTG for 1 hour, reaching an OD600˜0.2, after which the bacteria were pelleted by centrifugation and resuspended in 100 mM Tris-HCl, pH 7.5. Lysates were prepared by sonication in a Bioruptor sonicating bath (Diagenode, Belgium) and centrifugation at ˜14,000 g was performed to remove insoluble matter. […]
To examine the properties of the protein encoded by NT01CX2047, we cloned its ORF into an inducible expression vector which was then introduced into a genetically modified E. coli strain that permitted expression of C. novyi-NT genes (which have a codon usage very different than that of E. coli). […] Lysates from these cells were tested for lipase activity as measured by hydrolysis of 1,2-dioleoyl-3-pyrenedecanoyl-rac-glycerol. […]

[2] = Lipase assay of E. coli lysates; format: biochemical; conditions: lysates of IPTG-induced E. coli clones
Description: FIG. 4A-4D. Functional analysis of liposomase. Plasmids carrying the wt or mutant forms of the NT01CX2047 gene were introduced into E. coli. “Cured” bacteria represent those originally containing the wt gene and grown in the absence of selective antibiotics until the plasmid was lost. Cellular lysates from three independent clones of each bacterial strain were generated after induction of expression by IPTG and used for the following: (FIG. 4A) Western blotting with an antibody to oligohistidine confirmed the presence of similar amounts of wt and mutant proteins in the bacteria. (FIG. 4B) Lipase activity was analyzed using the fluorescent lipase substrate, 1,2-dioleoyl-3-pyrenedecanoyl-rac-glycerol. (FIG. 4C) Liposome-disrupting activity was assessed using Doxil. (FIG. 4D) Liposome-disrupting activity of lipases purified from ten different organisms were assessed using Doxil. Means and standard deviations of data from at least two independent experiments are shown in (FIG. 4B) to (FIG. 4D).
Protein Expression. […]
Lipase Assay. […] Increase in fluorescence caused by catalytic release of pyrenedecanoic acid was kinetically measured over 2 hours using excitation at 320 nm and emission at 405 nm. All measurements were performed at 37° C. in a FluoStar Galaxy fluorescence plate reader. […]

[3] = Liposome-disruption assay (doxorubicin release from Doxil); format: biochemical; conditions: lysates of IPTG-induced E. coli incubated with liposomal doxorubicin
Method: Liposome-Disruption Assay. Samples were mixed with DOXIL™ liposomal doxorubicin (100 μl sample+5 μl DOXIL™ liposomal doxorubicin in a 96-well plate or 50 μl sample+2 μl DOXIL™ in a 384-well plate). Increase in fluorescence caused by the dequenching of released doxorubicin was kinetically measured over 30-60 minutes using excitation at 470 nm and emission at 590 nm (5). All measurements were performed at 37° C. in a fluorescence plate reader. Liposome-disrupting activity was defined as the maximum slope of the release curve.
Lipase Panel Experiment. Purified NT01CX2047 enzyme and nine other purified lipases were dissolved in 100 mM Tris-HCl, pH 7.5 to a concentration of 1 mg/ml. Fifty μl of Assay Buffer (100 mM Tris-HCl pH 7.5+0.125M NaCl) was pipetted into 384-well plates, followed by 2 μl of the relevant lipase and 1 μl of DOXIL. Samples were assayed in duplicate for liposome-disrupting activity as described above.
To test the liposome-disrupting activity of the lysates described above, we incubated them with liposomal doxorubicin. […] When this strain was cultured without selective antibiotics until the bacteria lost the expression vector by random segregation, the liposome-disrupting activity was lost (FIG. 4C). Moreover, the cells that had lost the plasmid were able to grow as robustly as the parental E. coli and the S127X mutant.

For `COc1cccc2c1C(=O)c1c(O)c3c(c(O)c1C2=O)C[C@@](O)(C(=O)CO)C[C@@H]3O[C@H]1C[C@H](N)[C@H](O)[C@H](C)O1` [doxorubicin], the “tumor response (tumor volume)” value [1] was “Neither doxorubicin nor Doxil alone resulted in prolonged therapeutic effects”.

B1: NT01CX2047: C. novyi-NT extracellular lipase, the liposome-disrupting factor (SEQ ID NO: 1), expressed in E. coli with oligohistidine tag (protein, listed as Clostridium novyi)
chain: MQSKLKKFISTISVSLFTLASVLTFSMAKPVNAFAKENQKVSQNNYPIILCHGCNGWGRTENFGTVAFGARYYWGGNVDLQQKLIENGFTTYTAAVGPLSSNWDRACELYAQIKGGRVDYGEAHAKKHGHSRYGRYYRGFYPEWGTKDENGNIRKVHLIGHSQGGQTIRMLTTLLGQGKQEEISATGENTNELFKGGHDWVSGLITLASPHDGTTLADMKGTDAAAAIGIGAVGSMLGNISNSDIIFDLKVDQWGLKRKPSESFISYFNRCATSKMWNSKDICSVDLSTNGAVEQNKWVKAQPNVYYFSWACCGTIRNPISIFGHHMASPIRMSDKGLYNVQWALQAQLMGTYSRNNPRRAIPVIDSKWWPNDGYVNTISENGPKAGSTDEIVNYNGTPQIGKWNFMGVKDMDHEDIIGRHWNGAPNFFIDMAQMLRNLPVTE
modifications: oligohistidine tag
For B1, the “growth of the expressing E. coli cells (apparent toxicity of gene product)” value (E. coli) was “grew poorly”, the lipase activity [2] was “exhibited lipase activity” and the liposome-disrupting activity [3] was “potent activity”.

B2: S127G (protein, listed as Clostridium novyi)
chain: B1 chain with S162G
For B2, the “growth of the expressing E. coli cells (apparent toxicity of gene product)” value (E. coli) was “same poor growth as wild-type NT01CX2047”, the lipase activity [2] was “devoid of lipase activity” and the liposome-disrupting activity [3] was “retained substantial liposome-disrupting activity”.

From US8444963B2 (priority 2006, dated 2013)
